Assay results taken from patent US20220106398A1 (IGM BIOSCIENCES, published 2022).
Substitutions are numbered along the chain they refer to.

T1: human His6-GITR (human, UniProt Q9Y5U5 26-162)
T1 construct: His6-tagged recombinant protein; also called hGITR-His; human GITR-His
T1 sequence: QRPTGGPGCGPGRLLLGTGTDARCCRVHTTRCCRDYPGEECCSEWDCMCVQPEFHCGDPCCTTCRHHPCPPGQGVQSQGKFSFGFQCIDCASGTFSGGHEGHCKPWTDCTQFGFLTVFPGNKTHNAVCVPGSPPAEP

T2: cynomolgus monkey His6-GITR (cynomolgus monkey)
T2 construct: His6-tagged recombinant protein; also called cGITR-His; cyno GITR-His
T2 chain: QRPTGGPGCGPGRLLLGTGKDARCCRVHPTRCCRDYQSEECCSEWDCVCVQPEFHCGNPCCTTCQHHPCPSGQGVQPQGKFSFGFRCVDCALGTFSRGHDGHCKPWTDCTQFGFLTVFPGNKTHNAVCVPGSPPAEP

T3: mouse His6-GITR (mouse, UniProt O35714 20-153)
T3 construct: His6-tagged recombinant protein; also called mGITR-His; mouse GITR-His
T3 sequence: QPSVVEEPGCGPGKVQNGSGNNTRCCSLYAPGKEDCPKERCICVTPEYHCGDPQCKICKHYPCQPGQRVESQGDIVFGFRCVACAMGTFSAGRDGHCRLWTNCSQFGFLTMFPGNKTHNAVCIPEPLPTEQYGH

B1: GITR-Mab-11 scFv (scFv, V domains shown)
VH: QVQLVQSGAEVKKPGASVKVSCKASGGTFSNYGISWVRQAPGQGLEWMGIINPTDGSTTYAQKFQGRVTMTRDTSTSTVYMELSSLRSEDTAVYYCARWWGSGWSWYFDLWGRGTLVTVSS
VL: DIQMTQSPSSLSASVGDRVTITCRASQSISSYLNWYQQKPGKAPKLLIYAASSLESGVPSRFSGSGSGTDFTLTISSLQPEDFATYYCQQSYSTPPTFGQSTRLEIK
notes: scFv in periplasmic extract, V5 tag
B2: GITR-Mab-12 scFv (scFv, V domains shown)
VH: QVQLVQSGAEVKKPGASVKVSCKASGYTFTSYAINWVRQAPGQGLEWMGILSPSGGGTSYAPKFQGRVTMTRDTSTSTVYMELSSLRSEDTAVYYCARGPWYFDLWGRGTLVTVSS
VL: DIQMTQSPSSLSASVGDRVTITCRASQGISNSLAWYQQKPGKAPKLLIYAASSLQSGVPSRFSGSGSGTDFTLTISSLQPEDFATYYCQQSYSTPFTFGPGTKVDIK
notes: as for B1
B3: GITR-Mab-16 scFv (scFv, V domains shown)
VH: QVQLVQSGAEVKKPGASVKVSCKASGGTLSSYAISWVRQAPGQGLEWMGWIDPNSGGTNYAQKFQGRVTMTRDTSTSTVYMELSSLRSEDTAVYYCARQGLLWFGESGSIYYYYGMDVWGQGTTVTVSS
VL: B2 VL with Q27R, G28S, S32Y, A34N, A50G, P95L, F96V, P100Q, D105E
notes: as for B1
B4: GITR-Mab-22 scFv (scFv, V domains shown)
VH: QVQLVQSGAEVKKPGASVKVSCKASGGRFSTYALSWVRQAPGQGLEWMGIINPTDGSTTYAQKFQGRVTMTRDTSTSTVYMELSSLRSEDTAVYYCARDVYSSSWYSDYWGQGTLVTVSS
VL: B2 VL with G28S, S32W, S53T, T94V
notes: as for B1
B5: GITR-Mab-24 scFv (scFv, V domains shown)
VH: QVQLVQSGAEVKKPGASVKVSCKASGGTFNNYAINWVRQAPGQGLEWMGTINPRDGDTTYAQKFQGRVTMTRDTSTSTVYMELSSLRSEDTAVYYCARVGYYGSGSYYSYYGMDVWGQGTTVTVSS
VL: B2 VL with G28N, S30T, S32W, S91A, T94F, F96W, P100Q, D105E
notes: as for B1
B6: GITR-Mab-19 scFv (scFv, V domains shown)
VH: QVQLVQSGAEVKKPGASVKVSCKASGYTFTSYDINWVRQAPGQGLEWVGIINPSGGSTSYAQKFQGRVTMTRDTSTSTVYMELSSLRSEDTAVYYCARASSGGYYYYYGMDVWGQGTTVTVSS
VL: B2 VL with G28D, S30V, S32W, S91Y, T94Y, F96L, P100Q, K103R, V104L, D105E
notes: as for B1
B7: GITR-Mab-18 scFv (scFv, V domains shown)
VH: EVQLLESGGGLVKPGGSLRLSCAASGFTFSSYWMSWVRQAPGKGLEWVSGISWNGGTVGYADSVKGRFTISRDDSKNTLYLQMNSLKTEDTAVYYCAKLGIAVKSHWYFDLWGRGTLVTVSS
VL: B2 VL with Q27E, G28S, N31T, S32W, S93T, T94L, F96L, P100G, V104L, D105E
notes: as for B1
B8: GITR-Mab-15 scFv (scFv, V domains shown)
VH: QVQLVQSGAEVKKPGSSVKVSCKASGFTFTTSAVQWVRQAPGQGLEWMGGIIPIFGTANYAQKFQGRVTITADESTSTAYMELSSLRSEDTAVYYCAKGSGYEFPGGSEYFQHWGQGTLVTVSS
VL: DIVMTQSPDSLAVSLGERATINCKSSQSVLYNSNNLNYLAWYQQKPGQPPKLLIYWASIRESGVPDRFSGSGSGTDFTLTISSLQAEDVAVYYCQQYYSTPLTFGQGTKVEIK
notes: as for B1
B9: GITR-Mab-10 scFv (scFv, V domains shown)
VH: QVQLVQSGAEVKKPGASVKVSCKASGYTFTSNYMHWVRQAPGQGLEWMGWMNPNSGNTAYAQKFQGRVTMTRDTSTSTVYMELSSLRSEDTAVYYCARGRGGQLLFDYWGQGTLVTVSS
VL: DIQMTQSPSSLSASVGDRVTITCRASQGISSWLAWYQQKPGKAPKLLIYAASTLQSGVPSRFSGSGSGTDFTLTISSLQPEDFATYYCQQYNSYSTFGQGTKVEIK
notes: as for B1
B10: GITR-Mab-2 scFv (scFv, V domains shown)
VH: QVQLVQSGAEVKKPGSSVKVSCKASGYRFTGYHLHWVRQAPGQGLEWMGGIIPIFGTANYAQKFQGRVTITADKSTSTAYMELSSLRSEDTAVYYCAYGVPPDPWGQGTLVTVSS
VL: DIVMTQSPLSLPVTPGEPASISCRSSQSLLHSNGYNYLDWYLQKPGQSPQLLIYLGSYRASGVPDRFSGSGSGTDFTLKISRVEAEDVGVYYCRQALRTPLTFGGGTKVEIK
notes: as for B1
B11: GITR-Mab-9 scFv (scFv, V domains shown)
VH: QVQLVQSGAEVKKPGASVKVSCKASGHTFTSQYMHWVRQAPGQGLEWVGVINPNDGSTSYAQKFQGRVTMTRDTSTSTVYMELSSLRSEDTAVYYCARDGAYYYDSSGYYRSSNFDYWGQGTLVTVSS
VL: DIQMTQSPSSLSASVGDRVTITCQASQDIGNYLNWYQQKPGKAPKLLIYGASNLETGVPSRFSGSGSGTDFTLTISSLQPEDFATYYCQQGYSFPLTFGQGTKVEIK
notes: as for B1
B12: GITR-Mab-14 scFv (scFv, V domains shown)
VH: EVQLLESGGGLVKPGGSLRLSCAASGFRFSVYWMSWVRQAPGKGLEWVSGISGSGGTTYYADSVKGRFTISRDDSKNTLYLQMNSLKTEDTAVYYCARVRRDGYNYNFDYWGQGTLVTVSS
VL: B11 VL with G30S, Y49F, G50D, N53S, T56A, G91A, Y92N, L96P, K103E
notes: as for B1
B13: GITR-Mab-20 scFv (scFv, V domains shown)
VH: QVQLVQSGAEVKKPGASVKVSCKASGGTFSNYAISWVRQAPGQGLEWMGVINPRGGSTTYAQKFQGRVTMTRDTSTSTVYMELSSLRSEDTAVYYCARDYSIPYYGMDVWGQGTTVTVSS
VL: B11 VL with Q24R, D28S, G30S, N31T, G50D, G91S, F94T, Q100G
notes: as for B1
B14: GITR-Mab-21 scFv (scFv, V domains shown)
VH: EVQLLESGGGLVQPGGSLRLSCAASGFTFSNHYMSWVRQAPGKGLEWVAVIALDGSYRYYADSVKGRFTISRDNSKNTLYLQMNSLRAEDTAVYYCARVGPGGMDVRGQGTTVTVSS
VL: DIQMTQSPSSLSASVGDRVTITCQASQDISNYLNWYQQKPGKAPKLLIYAASSLQSGVPSRFSGSGSGTDFTLTISSLQPEDFATYYCQQSYNSPRVYTFGQGTKVEIK
notes: as for B1
B15: GITR-Mab-13 scFv (scFv, V domains shown)
VH: QVQLVQSGAEVKKPGSSVKVSCKASGGTFSSYAISWVRQAPGQGLEWMGGIVPMLGSPHYAQKFQGRVTITADESTSTAYMELSSLRSEDTAVYYCARGSWLVADFQHWGQGTLVTVSS
VL: not shown
notes: as for B1

target: T1, human His6-GITR; assay: ELISA, scFv periplasmic extract on coated His6-GITR
Protocol: (§1) The SuperHuman-2.0 scFv Antibody Library (available from Distributed Bio, South San Francisco, Calif.) was used to perform selection with human, cynomolgus or mouse GITR proteins. Selected phage clones from overnight growth were inoculated into wells in 96 well deep well plates containing 1 mL of medium. scFv expression was induced by addition of IPTG (Teknova) to a final concentration of 1 mM. Plates were grown overnight after induction. To prepare periplasmic extracts (PPE), the plates containing the phage clones were centrifuged at 2500 rpm for 10 min, the supernatant discarded and then pellets treated with 75 μL of cold periplasmic extract buffer with appropriate concentration of protease inhibitors (Complete Mini, EDTA-free -Roche Applied Biosciences—Cat No 1836170). After shaking at room temperature for 10 min, 225 μL of cold ddH2O with added protease inhibitor (1 tablet/50 mL) was added per well and mixed by pipetting up and down. PPE extraction was completed by incubation at room temperature for an additional 1 hr. The plates were then centrifuged at 4000 rpm for 20 minutes and 200 μL of PPE supernatant was collected from each well and transferred to a new plate which was then blocked with equal volume of 4% milk (2% final) to prepare blocked PPE extracts. In the meantime, Maxisorp plates (Nunc 442404) coated with relevant antigen (human, mouse or cynomolgus monkey His6-GITR) at 50 μl/well of 1 μg/mL antigen or 2% BSA in PBS as control were prepared for ELISA analyses. Next, 50 μL of each blocked PPE extract was transferred to the pre-blocked ELISA plates coated with the relevant antigens. After incubation and washing 3× with PBS, 50 μL of anti-V5 tag antibody (tag included in the phage display constructs, Invitrogen Cat No R960-25) at 1:5000 dilution in 2% milk was added and the plates were incubated for 1 hr. […] After further washing 3× with PBST, 50 μl/well of TMB substrate was added and the plates were developed until positive controls were visible. The reaction was stopped with 50 μl/well of 2N H2SO4. Plates were read at 450 nm to determine ELISA signal from bound PPE derived scFv.

hGITR-His/BKG | Binder
21.8 fold over background | B1
37.8 fold over background | B2
24.1 fold over background | B3
25.7 fold over background | B4
19 fold over background | B5
10 fold over background | B6
17.9 fold over background | B7
11.4 fold over background | B8
34.2 fold over background | B9
20.1 fold over background | B10
12.8 fold over background | B11
34 fold over background | B12
24.7 fold over background | B13
13.5 fold over background | B14
25.4 fold over background | B15

Target: T2, cynomolgus monkey His6-GITR
Assay: as above
Protocol: as §1

cGITR-His/BKG | Binder
15.6 fold over background | B1
16.9 fold over background | B2
21.6 fold over background | B3
23.3 fold over background | B4
5.7 fold over background | B5
24.6 fold over background | B6
17.7 fold over background | B7
12.3 fold over background | B8
29.4 fold over background | B9
25.2 fold over background | B10
11.6 fold over background | B11
11.5 fold over background | B12
15.3 fold over background | B13
21.2 fold over background | B14
9.4 fold over background | B15

target: T3, mouse His6-GITR; assay: as above
Protocol: as §1

mGITR-His/BKG | Binder
1.1 fold over background | B1
1 fold over background | B2
0.8 fold over background | B3
1.2 fold over background | B4
1.7 fold over background | B5
1.3 fold over background | B6
1 fold over background | B7
1.2 fold over background | B8
1.1 fold over background | B9
1.1 fold over background | B10
1.1 fold over background | B11
0.9 fold over background | B12
1.1 fold over background | B13
1.2 fold over background | B14
1.1 fold over background | B15

target: T1, human His6-GITR; assay: CARTERRA LSA, scFv periplasmic extract

Kd | Binder
1.4 nM | B1
7.5 nM | B2
0.8 nM | B3
2.3 nM | B4
38.9 nM | B5
10.8 nM | B6
1 nM | B7
52.1 nM | B8
5.3 nM | B9
16.3 nM | B10
3.3 nM | B11
30.3 nM | B12
7.8 nM | B13
2.9 nM | B14
2.6 nM | B15
